Data taken from the supplement of paper PMC7125110.
± gives the standard error. This sample holds only a part of the variants without activity.

B1: glmS ribozyme (parent)
chain: AUAAAAGCGCCAGAACUACAGAAAUGUAGUUGACGAGGAGGAGGUUUAUCGAAUUUUCGGCGGAUGCCUCCAAA

Tests used:
Settings in all cases: with glucosamine-6-phosphate
glucosamine-6-phosphate [1] = variants of: B1; assay: self-cleavage kobs at 40 uM GlcN6P; higher = faster cleavage; RNA array
In short: (§1)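 Tiles bearing barcoded ribozyme variants, transcribed in situ by E. coli RNA polymerase on sequenced MiSeq chips, were imaged over ~14 h at 37 °C using a hybridised Cy3 probe. Glucosamine-6-phosphate was supplied at 40 μM to 10 mM in HEPES/KCl/Mg(OAc)2 buffer. kobs came from one- or two-exponential decay fits to normalised per-tile medians, and weighted Michaelis–Menten fits then provided kcat and KM.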

glucosamine-6-phosphate [2] = variants of: B1; assay: self-cleavage kobs at 2500 uM GlcN6P; higher = faster cleavage; RNA array
In short: as §1

glucosamine-6-phosphate [3] = variants of: B1; assay: self-cleavage kobs at 10000 uM GlcN6P; higher = faster cleavage; RNA array
In short: as §1

glucosamine-6-phosphate [4] = variants of: B1; assay: self-cleavage kobs at 640 uM GlcN6P; higher = faster cleavage; RNA array
In short: as §1

glucosamine-6-phosphate [5] = variants of: B1; assay: self-cleavage kobs at 160 uM GlcN6P; higher = faster cleavage; RNA array
In short: as §1

Variant | self-cleavage kobs at 40 uM GlcN6P (glucosamine-6-phosphate [1]) [s⁻¹] | self-cleavage kobs at 2500 uM GlcN6P (glucosamine-6-phosphate [2]) [s⁻¹] | self-cleavage kobs at 10000 uM GlcN6P (glucosamine-6-phosphate [3]) [s⁻¹] | self-cleavage kobs at 640 uM GlcN6P (glucosamine-6-phosphate [4]) [s⁻¹] | self-cleavage kobs at 160 uM GlcN6P (glucosamine-6-phosphate [5]) [s⁻¹]
C34A U65A | < 1e-05 | < 1e-05 | < 1e-05 | – | –
G29C A42C | < 1e-05 | < 1e-05 | < 1e-05 | < 1e-05 | –
A15U C34A A64U C68A | < 1e-05 | – | < 1e-05 | – | –
G32U A48U C61U G63U C67U | < 1e-05 | – | < 1e-05 | < 1e-05 | –
A15U U31C C50G | 5.26e-05 ± 2.5e-05 | – | – | – | –
A33U G43A | < 1e-05 | < 1e-05 | < 1e-05 | < 1e-05 | < 1e-05
U30G C70U | 0.000299 ± 3.2e-05 | 0.00367 ± 0.00096 | 0.00516 ± 0.00081 | 0.00108 ± 0.00014 | 0.000471 ± 8.6e-05
G32A C34U C50U C61A G66A | 4.94e-05 ± 2.4e-05 | – | – | – | –
C16A G29A A36U U65A C71U | < 1e-05 | – | – | < 1e-05 | –
G29C G60U C61A | < 1e-05 | – | – | < 1e-05 | –
G29U A42G G43A | < 1e-05 | – | – | – | –
U31G G35U | < 1e-05 | < 1e-05 | < 1e-05 | < 1e-05 | < 1e-05
C34G A64U | < 1e-05 | < 1e-05 | < 1e-05 | < 1e-05 | < 1e-05
G35A A39G U57C | < 1e-05 | < 1e-05 | < 1e-05 | – | –
U30G G32C A39G U45C A52U G63A | < 1e-05 | < 1e-05 | < 1e-05 | < 1e-05 | –
U30C C50A U65A U69G | 4.39e-05 ± 1.7e-05 | 5.84e-05 ± 2.3e-05 | 3.19e-05 ± 1.6e-05 | 0.000207 ± 5.3e-05 | –
C34A C50G C71U | 6.66e-05 ± 3e-05 | 0.000247 ± 0.00012 | 6.4e-05 ± 2.5e-05 | 0.000408 ± 0.0001 | 0.000155 ± 6.7e-05
G29C U30C | < 1e-05 | – | – | < 1e-05 | –
U30G G43C | < 1e-05 | < 1e-05 | < 1e-05 | – | –
A33U G44C C68U | < 1e-05 | – | < 1e-05 | – | –
A33U U47A U54C | < 1e-05 | 4.24e-05 ± 2e-05 | 7.82e-05 ± 1.8e-05 | – | –
U30C A36C U69G | 0.000181 ± 7.1e-05 | – | – | 0.000264 ± 0.00013 | –
G32C U45G U65A | < 1e-05 | – | < 1e-05 | < 1e-05 | –

Variant | self-cleavage kobs at 40 uM GlcN6P (glucosamine-6-phosphate [1]) [s⁻¹] | self-cleavage kobs at 2500 uM GlcN6P (glucosamine-6-phosphate [2]) [s⁻¹] | self-cleavage kobs at 10000 uM GlcN6P (glucosamine-6-phosphate [3]) [s⁻¹] | self-cleavage kobs at 640 uM GlcN6P (glucosamine-6-phosphate [4]) [s⁻¹] | self-cleavage kobs at 160 uM GlcN6P (glucosamine-6-phosphate [5]) [s⁻¹]
G32U G41A G66C C68G | < 1e-05 | < 1e-05 | < 1e-05 | – | < 1e-05
U30A A33G A48C C67A | < 1e-05 | – | < 1e-05 | – | –
C34A A42G | < 1e-05 | < 1e-05 | – | < 1e-05 | < 1e-05
C16A A42U G63U | < 1e-05 | < 1e-05 | – | < 1e-05 | –
G29A U47G | 2.24e-05 ± 1.1e-05 | – | 0.000713 ± 0.00011 | 0.000161 ± 6.4e-05 | –
U31G U69A | 2.79e-05 ± 1.1e-05 | 0.000288 ± 7.4e-05 | 0.000103 ± 1.4e-05 | 0.00012 ± 3.2e-05 | 9.26e-05 ± 3.7e-05
G35A C71U | < 1e-05 | < 1e-05 | < 1e-05 | < 1e-05 | < 1e-05
G29C G43U C67U | < 1e-05 | – | < 1e-05 | – | –
U30G G51A | < 1e-05 | – | – | < 1e-05 | < 1e-05
C16G A48G C68U | < 1e-05 | – | < 1e-05 | – | –
U30A A39G | 0.000182 ± 2.7e-05 | – | 0.0319 ± 0.014 | 0.00306 ± 0.0014 | 0.000615 ± 0.00023
A15U G59C A64C | < 1e-05 | – | – | – | –
C16G C34U G59A G60U | < 1e-05 | – | – | – | –
G32A G40U C67G | < 1e-05 | < 1e-05 | – | < 1e-05 | –
C19A G43U | < 1e-05 | – | – | < 1e-05 | –
U31A G51A U56A C58U G63U U65G | < 1e-05 | – | – | – | –
C34A G37C A48C | < 1e-05 | – | < 1e-05 | – | –
U30C G43C | < 1e-05 | < 1e-05 | < 1e-05 | < 1e-05 | < 1e-05
U30G A42U G43U A48U G59U | < 1e-05 | – | – | – | –
A33U G59U G62A | < 1e-05 | – | – | – | –
G21A G44U U57G C67A | < 1e-05 | – | – | – | –
U31C C34G G37A A42U U47A A52U | < 1e-05 | – | < 1e-05 | – | –
